How the values were obtained:
[1] = biological target: recombinant IL-1RAP biotinylated protein (UniProt Q9NPH3); experiment: flow cytometry, serial dilution of biotinylated IL-1RAP on CAR-transduced primary T cells, anti-biotin antibody; single experiment
[2] = biological target: recombinant IL-1RAP biotinylated protein (UniProt Q9NPH3); experiment: flow cytometry, biotinylated IL-1RAP (1.25 ng) on CAR-transduced CEM cells, anti-biotin antibody
[3] = biological target: recombinant IL-1RAP biotinylated protein (UniProt Q9NPH3); experiment: flow cytometry, biotinylated IL-1RAP (0.15 ng) on CAR-transduced primary T cells, anti-biotin antibody
[4] = biological target: recombinant IL-1RAP biotinylated protein (UniProt Q9NPH3); experiment: flow cytometry, serial dilution of biotinylated IL-1RAP on CAR-transduced CEM cells, anti-biotin antibody; single experiment
[5] = biological target: IL-1RAP expressed at the cell surface of human cells (human), Q9NPH3; experiment: flow cytometry on monocytes of healthy donors' peripheral blood (2/5) and bone marrow (3/5); RFI against isotype; settings: remark: other sources report otherwise
Sequence of IL-1RAP expressed at the cell surface of human cells (human), Q9NPH3 (Q9NPH3 21-570): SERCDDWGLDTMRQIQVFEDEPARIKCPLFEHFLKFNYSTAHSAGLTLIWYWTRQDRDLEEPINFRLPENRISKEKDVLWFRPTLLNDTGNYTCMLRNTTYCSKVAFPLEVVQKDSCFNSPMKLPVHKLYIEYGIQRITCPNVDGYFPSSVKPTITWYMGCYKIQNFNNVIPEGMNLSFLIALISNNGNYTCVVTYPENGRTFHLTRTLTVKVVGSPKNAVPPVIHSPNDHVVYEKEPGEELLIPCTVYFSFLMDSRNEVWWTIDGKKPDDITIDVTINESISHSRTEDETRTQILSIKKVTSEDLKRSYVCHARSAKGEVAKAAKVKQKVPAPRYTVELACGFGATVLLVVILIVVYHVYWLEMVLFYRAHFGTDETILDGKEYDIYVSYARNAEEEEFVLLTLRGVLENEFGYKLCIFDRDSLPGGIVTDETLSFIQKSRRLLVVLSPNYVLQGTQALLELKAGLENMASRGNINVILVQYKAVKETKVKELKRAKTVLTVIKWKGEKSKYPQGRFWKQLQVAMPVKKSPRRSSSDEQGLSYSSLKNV

Sequence of recombinant IL-1RAP biotinylated protein (Q9NPH3 21-359 limits assumed): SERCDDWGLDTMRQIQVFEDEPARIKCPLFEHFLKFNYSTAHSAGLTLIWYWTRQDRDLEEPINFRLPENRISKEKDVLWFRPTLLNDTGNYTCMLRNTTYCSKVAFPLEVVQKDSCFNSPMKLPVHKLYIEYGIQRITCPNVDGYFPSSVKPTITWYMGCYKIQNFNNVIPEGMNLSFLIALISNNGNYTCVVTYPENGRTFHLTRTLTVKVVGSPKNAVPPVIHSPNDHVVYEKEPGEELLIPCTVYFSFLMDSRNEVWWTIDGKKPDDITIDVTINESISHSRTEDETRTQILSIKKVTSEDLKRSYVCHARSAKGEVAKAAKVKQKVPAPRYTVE

Row | Binder | amount of recombinant protein required for recruiting maximum of cells [1] [ng] | maximum percentage of Biotin+/CD19+ cells [2] [%] | maximum percentage of Biotin+/CD19+ cells [3] [%] | amount of recombinant protein required for recruiting maximum of cells [4] [ng] | RFI [5]
1 | IL-1RAP CAR (scFv of #E3C3 with CD28-4.1BB-CD3z signaling chain) expressed at the surface of transduced CEM or primary T cells (protein, not shown: small tags and cut ends) scFv: QVQLQQPGAELMMPGASVKVSCEASGYTFTDSWMHWVKQRPGQGLEWIGAIDPSDSYTTYNQKFTGKATLSVDESSNTAYMQLSSLTSEDSAVYYCARYYSGSNYISPFPYWGQGTLVTVSAGGSGGGGSGGGGSVDMESQIQVFVFVFLWLSGVDGDIVMTQSHKFMSTSVGDRVTITCKASLDVSTAVAWYQQKPGQSPKLLIYSASYRYTGVPDRFTGSGSGTDFTFTISSVQAEDLAVYYCQQHYSPPFTFGSGTNLEIK | 0.15 | 85.8 | 68.5 | 1.25 | –
2 | mouse anti-hIL-1RAP monoclonal antibody, clone #E3C3 (antibody, V domains shown) VH: QVQLQQPGAELMMPGASVKVSCEASGYTFTDSWMHWVKQRPGQGLEWIGAIDPSDSYTTYNQKFTGKATLSVDESSNTAYMQLSSLTSEDSAVYYCARYYSGSNYISPFPYWGQGTLVTVSA VL: DIVMTQSHKFMSTSVGDRVTITCKASLDVSTAVAWYQQKPGQSPKLLIYSASYRYTGVPDRFTGSGSGTDFTFTISSVQAEDLAVYYCQQHYSPPFTFGSGTNLEIK | – | – | – | – | < 2
